Results reported in patent US20250289897A1 (Eli Lilly, published 2025).
Positions count from the first letter of the chain named. Each block holds one binder with its values, some of them ahead of it.

Key:
[1] = target: T1, human LEPR, full length, on HEK293-STAT3Luc-hLepR1 cells (Homo sapiens, UniProt P48357 22-1165); assay: cell-based or functional assay
T1 sequence: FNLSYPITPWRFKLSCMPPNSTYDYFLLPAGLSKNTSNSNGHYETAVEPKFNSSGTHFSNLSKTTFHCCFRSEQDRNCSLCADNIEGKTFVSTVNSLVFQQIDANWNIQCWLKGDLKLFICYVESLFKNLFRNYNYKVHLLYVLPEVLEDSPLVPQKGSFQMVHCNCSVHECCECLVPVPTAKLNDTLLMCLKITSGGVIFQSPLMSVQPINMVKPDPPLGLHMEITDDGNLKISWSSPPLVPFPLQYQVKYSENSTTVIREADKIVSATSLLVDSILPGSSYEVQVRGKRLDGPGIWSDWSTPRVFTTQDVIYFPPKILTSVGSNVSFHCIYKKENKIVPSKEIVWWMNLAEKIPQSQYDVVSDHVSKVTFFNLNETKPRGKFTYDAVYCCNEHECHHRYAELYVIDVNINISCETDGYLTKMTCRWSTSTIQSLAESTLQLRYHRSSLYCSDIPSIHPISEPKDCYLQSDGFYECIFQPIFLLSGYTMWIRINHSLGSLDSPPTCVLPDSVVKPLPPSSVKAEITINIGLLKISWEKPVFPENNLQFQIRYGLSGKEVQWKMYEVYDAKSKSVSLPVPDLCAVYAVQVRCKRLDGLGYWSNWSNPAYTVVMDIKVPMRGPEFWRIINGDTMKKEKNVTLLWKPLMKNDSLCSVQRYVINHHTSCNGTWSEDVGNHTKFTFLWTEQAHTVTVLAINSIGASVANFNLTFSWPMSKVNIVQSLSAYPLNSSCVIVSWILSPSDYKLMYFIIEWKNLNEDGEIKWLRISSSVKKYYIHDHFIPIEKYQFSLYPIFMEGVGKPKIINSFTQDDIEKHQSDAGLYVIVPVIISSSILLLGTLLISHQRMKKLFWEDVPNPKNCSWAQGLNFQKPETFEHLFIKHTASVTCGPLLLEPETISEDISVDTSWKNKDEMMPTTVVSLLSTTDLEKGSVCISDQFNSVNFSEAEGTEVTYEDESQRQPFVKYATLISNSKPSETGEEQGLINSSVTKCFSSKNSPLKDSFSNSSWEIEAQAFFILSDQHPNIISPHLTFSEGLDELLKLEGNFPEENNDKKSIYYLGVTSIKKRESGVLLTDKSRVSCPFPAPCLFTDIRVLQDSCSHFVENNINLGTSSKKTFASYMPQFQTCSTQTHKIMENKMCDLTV

[2] = target: T1, human LEPR, full length, on …; assay: cell-based or functional assay; remark: listed apart in the source
Rat LEPR-ECD-His = target: T2, Rat LEPR-ECD-His (rat, UniProt Q62959 22-839); assay: SPR (Biacore T200), antibody captured on Protein A/G chip, n = 1
T2 sequence: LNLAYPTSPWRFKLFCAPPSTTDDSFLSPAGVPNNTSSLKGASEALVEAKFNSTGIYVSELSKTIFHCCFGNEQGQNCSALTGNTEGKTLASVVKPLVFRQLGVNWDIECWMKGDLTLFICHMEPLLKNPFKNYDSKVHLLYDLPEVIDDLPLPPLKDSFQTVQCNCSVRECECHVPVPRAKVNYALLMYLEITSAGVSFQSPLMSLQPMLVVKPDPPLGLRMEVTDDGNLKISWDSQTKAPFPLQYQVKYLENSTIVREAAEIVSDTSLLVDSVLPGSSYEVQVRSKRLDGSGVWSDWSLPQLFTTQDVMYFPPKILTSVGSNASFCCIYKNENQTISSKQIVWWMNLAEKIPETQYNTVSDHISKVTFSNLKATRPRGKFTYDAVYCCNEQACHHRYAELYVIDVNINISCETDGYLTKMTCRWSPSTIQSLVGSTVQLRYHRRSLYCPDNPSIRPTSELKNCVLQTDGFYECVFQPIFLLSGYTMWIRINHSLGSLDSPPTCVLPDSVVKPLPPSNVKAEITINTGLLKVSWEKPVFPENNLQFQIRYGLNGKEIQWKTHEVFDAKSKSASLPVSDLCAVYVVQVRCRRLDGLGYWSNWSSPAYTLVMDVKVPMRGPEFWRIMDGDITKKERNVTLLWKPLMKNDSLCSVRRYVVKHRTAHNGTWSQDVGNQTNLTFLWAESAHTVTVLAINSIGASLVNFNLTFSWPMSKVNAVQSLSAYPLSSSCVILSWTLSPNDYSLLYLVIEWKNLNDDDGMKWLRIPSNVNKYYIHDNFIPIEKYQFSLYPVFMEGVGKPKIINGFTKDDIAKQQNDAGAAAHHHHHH

[3] = target: T1, human LEPR, full length, on …; assay: flow cytometry on live HEK293-STAT3Luc-hLepR1 cells, AF647 anti-human IgG; average of 4 runs
[4] = target: T3, cynomolgus monkey LEPR, full length, on HEK293-STAT3Luc-cmLepR2 cells (Macaca fascicularis); assay: flow cytometry on live HEK293-STAT3Luc-cmLepR2 cells, AF647 anti-human IgG; average of 4 runs
T3 construct: whole, on cells; also called cyno-LEPR; Macaca fascicularis LEPR

[5] = target: T4, Recombinant LEPR extracellular domain fused to hIgG1-Fc (human LEPR ECD-TEV-Fc) (human); assay: ELISA, plate coated with human LEPR ECD (SEQ ID NO:30) at 2 ug/mL, antibody titrated 1:3 from 50 ug/mL, goat anti-human kappa AP detection, OD560
T4 construct: The entry holds ECD, TEV site, human IgG1 Fc and a His tag in one chain; also called LEPR-Fc; hLEPR-TEV-hIgG1Fc

EC50 (nM), pSTAT3 AlphaLISA, after pre-exposure to 30 nM Antibody A and wash-out [1]: 0.36 nM
EC50 (nM), pSTAT3 AlphaLISA, vehicle-exposed cells [1]: 0.331 nM
Top (%), pSTAT3 AlphaLISA against 30 nM leptin, vehicle-exposed cells [1]: 68.9%
Maximum RLU, pERK1/2 AlphaLISA (baseline 29762.5) [2]: 86000 RLU
Bottom (gMFI) [3]: 131 gMFI
Top (gMFI) [3]: 2460 gMFI
Bottom (gMFI) [4]: 254 gMFI
Top (gMFI) [4]: 12100 gMFI
EC50 (read off the curve) [5]: ~0.06 µg/mL
B1: Antibody A (antibody, human IgG1, kappa, L234A L235A)
heavy: EVQLLESGGGLVQPGGSLRLSCAASGFTFSSFAMSWVRQAPGKGLEWVSAISGSGGSTYSADSVRGRFTISRDNSKNTLYLQMNSLRAEDTAVYYCAKDQGDWDFLFDYWGQGTLVTVSSASTKGPSVFPLAPSSKSTSGGTAALGCLVKDYFPEPVTVSWNSGALTSGVHTFPAVLQSSGLYSLSSVVTVPSSSLGTQTYICNVNHKPSNTKVDKRVEPKSCDKTHTCPPCPAPEAAGGPSVFLFPPKPKDTLYITREPEVTCVVVSVSHEDPEVKFNWYVDGVEVHNAKTKPREEQYNSTYRVVSVLTVLHQDWLNGKEYKCKVSNKALPAPIEKTISKAKGQPREPQVYTLPPSREEMTKNQVSLTCLVKGFYPSDIAVEWESNGQPENNYKTTPPVLDSDGSFFLYSKLTVDKSRWQQGNVFSCSVMHEALHNHYTQKSLSLSPGK
light: DIQMTQSPSFLSASVGDRVTITCRASQGISSSLAWYQQKPGKAPKLLIYTASTLQSGVPSRFSGSGSGTEFTLTISSLQPEDFATYYCQQLIYYPFTFGQGTKVEIKRTVAAPSVFIFPPSDEQLKSGTASVVCLLNNFYPREAKVQWKVDNALQSGNSQESVTEQDSKDSTYSLSSTLTLSKADYEKHKVYACEVTHQGLSSPVTKSFNRGEC
notes: IgG1 mAb
binding result (Rat LEPR-ECD-His): no binding (tested: LEPR-ECD tested up to 1000 nM)

EC50 (nM), pSTAT3 AlphaLISA, after pre-exposure to 30 nM Antibody C and wash-out [1]: 1.14 nM
EC50 (nM), pSTAT3 AlphaLISA, vehicle-exposed cells [1]: 1.04 nM
Top (%), pSTAT3 AlphaLISA against 30 nM leptin, vehicle-exposed cells [1]: 71.7%
Maximum RLU, pERK1/2 AlphaLISA (baseline 29762.5) [2]: 87000 RLU
Bottom (gMFI) [3]: 144 gMFI
Top (gMFI) [3]: 1850 gMFI
Bottom (gMFI) [4]: 214 gMFI
Top (gMFI) [4]: 10800 gMFI
EC50 (read off the curve) [5]: ~0.07 µg/mL
B2: Antibody C (antibody, human IgG1, kappa, L234A L235A, V domains shown)
VH: EVQLLESGGGLVQPGGSLRLSCAASGFTFSSFAMSWVRQAPGKGLEWVSAISGSGGSTYSADSVRGRFTISRDNSKNTLYLQMNSLRAEDTAVYYCAKDQGDWDFLFDYWGQGTLVTVSS
VL: DIQMTQSPSFLSASVGDRVTITCRASQGISSSLAWYQQKPGKAPKLLIYTASTLQSGVPSRFSGSGSGTEFTLTISSLQPEDFATYYCQQLNYYPFSFGQGTKVEIKR
binding result (Rat LEPR-ECD-His): no binding (tested: LEPR-ECD tested up to 1000 nM)

EC50 (nM), pSTAT3 AlphaLISA, after pre-exposure to 30 nM Antibody B and wash-out [1]: 1.06 nM
EC50 (nM), pSTAT3 AlphaLISA, vehicle-exposed cells [1]: 0.986 nM
Top (%), pSTAT3 AlphaLISA against 30 nM leptin, vehicle-exposed cells [1]: 70.5%
Maximum RLU, pERK1/2 AlphaLISA (baseline 29762.5) [2]: 83400 RLU
Bottom (gMFI) [3]: 123 gMFI
Top (gMFI) [3]: 2940 gMFI
Bottom (gMFI) [4]: 243 gMFI
Top (gMFI) [4]: 12100 gMFI
EC50 (read off the curve) [5]: ~0.08 µg/mL
B3: Antibody B (antibody, human IgG1, kappa, L234A L235A, V domains shown)
VH: B2 VH
VL: B2 VL with A25V, S97T
binding result (Rat LEPR-ECD-His): no binding (tested: LEPR-ECD tested up to 1000 nM)
